The source of these data is EP4682164A1 (Curogen Technology Co., Ltd., dated 2026).

To fix the notation:
B1: human IL-17F (IL-17FF homodimer) (ligand, UniProt Q96PD4 31-163, looked up)
chain: RKIPKVGHTFFQKPESCPPVPGGSMKLDIGIINENQRVSMSRNIESRSTSPWNYTVTWDPNRYPSEVVQAQCRNLGCINAQGKEDISMNSVPIQQETLVVRRKHQGCSVSFQLEKVLVTVGCTCVTPVIHHVQ
notes: also called hIL-17F; hIL-17FF

Assay [1] has as its target T1, wild-type IL-17RC (wtIL-17RC) (human, UniProt Q8NAC3 21-538, limits assumed).
T1 construct: also called IL-17RC wild type
T1 sequence (looked up): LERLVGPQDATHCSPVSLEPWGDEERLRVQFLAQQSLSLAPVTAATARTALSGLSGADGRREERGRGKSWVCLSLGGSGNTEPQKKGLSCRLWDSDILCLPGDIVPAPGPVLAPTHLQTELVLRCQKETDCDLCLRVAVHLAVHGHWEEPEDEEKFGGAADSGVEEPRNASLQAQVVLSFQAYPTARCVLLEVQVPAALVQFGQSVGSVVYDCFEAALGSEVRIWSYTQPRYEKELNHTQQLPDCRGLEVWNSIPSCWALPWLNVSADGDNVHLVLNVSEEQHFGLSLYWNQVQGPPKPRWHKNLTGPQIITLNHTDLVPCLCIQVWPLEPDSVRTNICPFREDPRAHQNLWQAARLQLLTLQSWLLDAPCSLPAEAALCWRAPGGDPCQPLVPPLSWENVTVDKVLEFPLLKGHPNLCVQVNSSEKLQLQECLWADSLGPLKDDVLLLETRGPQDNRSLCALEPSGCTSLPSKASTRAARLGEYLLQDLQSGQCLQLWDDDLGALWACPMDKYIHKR
As to the kind of experiment: binding affinity analysis of Table 12 (Octet BLI as described in Example 5). (In general: Biolayer interferometry detects binding as a change in optical thickness at a sensor tip.)

Assay [2] concerns the target T2, human IL-17A (IL-17AA homodimer) (human, UniProt Q16552 20-155, limits assumed).
T2 construct: also called hIL-17A; hIL-17AA
As to the kind of experiment: ELISA. (In general: An ELISA detects its analyte on a solid surface through an enzyme-linked reagent.)

Assay [3] deals with B1. As to the kind of experiment: ELISA.
Assay [4] concerns the target T3, human TNFα (human, UniProt P01375 77-233).
T3 construct: also called hTNFα
The assay is described as follows: ELISA.

Assay [5] has as its target T2, human IL-17A (IL-17AA homodimer). The assay is described as follows: cell-based or functional assay.
In assay [6] the target is B1. As to the kind of experiment: cell-based or functional assay.
Assay [7] has as its target T3, human TNFα. As to the kind of experiment: cell-based or functional assay.
The target in assay [8] is T2, human IL-17A (IL-17AA homodimer). The assay is described as follows: ELISA, cytokine coated on plate, binder titrated, HRP secondary antibody.
In assay [9] the target is B1. The assay is described as above.
Assay [10] deals with T3, human TNFα. Described as above.

T2 sequence (Q16552 20-155 limits assumed): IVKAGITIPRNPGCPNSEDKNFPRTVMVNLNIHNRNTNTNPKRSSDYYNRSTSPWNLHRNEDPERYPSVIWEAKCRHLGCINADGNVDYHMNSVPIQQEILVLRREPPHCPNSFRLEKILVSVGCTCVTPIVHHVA
T3 sequence (P01375 77-233 limits assumed): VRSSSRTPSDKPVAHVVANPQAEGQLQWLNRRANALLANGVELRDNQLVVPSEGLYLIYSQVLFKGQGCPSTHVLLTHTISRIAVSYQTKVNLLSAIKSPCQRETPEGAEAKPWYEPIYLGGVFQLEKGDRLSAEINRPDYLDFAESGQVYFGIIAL

As for B1, the Kd (as a rule, the free concentration of one partner at which half of the binding sites on the other are occupied at equilibrium, for simple one-to-one binding) in assay [1] is 4 nM.

B2: T1-T4-14 (Fc fusion)
chain: LRLLDHRAPVCSQPGLNCTVKNSDCLDDSWIHPRNLTPSSPKDLQIQLHFAHTQQGDLVPVAHIEWTLQTDASILYLEGAELSVLQLDTNERLCVRFEFLSKLRHHHRRWRFTFSHFVVDPGQEYEVTVHHLPKPIPDGDPNHQSKNFLVPDCEHPRMKVTTPCMSSALPWLNVSADGDNVHLVLNVSEEQHFGLSLYWNQVQGPPKPRWHKNLTGPQIITLNHTDLVPCLCIQVWPLEPDSVRTNICPFREDPRAHQNLWQAARLRLLTLQSWLLDAPCSLPAEAALCWRAPGGDPCQPLVPPLSWENVTVDKVLEFPLLKGHPNLCVQVNSSEKLQLQECLWADSLGPLKDDVLLLETRGPQDNRSLCALEPSGCTSLPSKASTRAARLGEYLLQDLQSGQCLQLWDDDLGALWACPMDKYIHKTGIEGRMDRNTGRGGEEKKKEKEKEEQEERETKTPECPSHTQPLGVFLFPPKPKDTLMISRTPEVTCVVVDVSQEDPEVQFNWYVDGVEVHNAKTKPREEQFNSTYRVVSVLTVLHQDWLNGKEYKCKVSNKGLPSSIEKTISKAKGQPREPQVYTLPPSQEEMTKNQVSLTCLVKGFYPSDIAVEWESNGQPENNYKTTPPVLDSDGSFFLYSRLTVDKSRWQEGNVFSCSVMHEALHNHYTQKSLSLSLGKGGGGSGGGGSGGGGSLELPAQVAFTPYAPEPGSTCRLREYYDQTAQMCCAKCPPGQHAKVFCTKTSDTVCDSCEDSTYTQLWNWVPECLSCSSRCSSDQVETQACTREQNRICTCRPGWYCALSKQEGCRLCAPLSKCRPGFGVARPGTETSDVVCKPCAPGTFSNTTSSTDICRPHQICSVVAIPGNASMDAVCTSTSPTRSMAPGAVHLPQPVSTRSQHTQPTPGPSTAPSTSILLPMGPSPPAEGSTGD
notes: also called T1c-Fc-T4g; IL-17RA/RC-Fc-TNFR2 (T1-T4-14)
For the molecule B2, the half-maximal effective concentration (EC50) (commonly the concentration that produces a half-maximal response) came to 0.0752 µg/mL in assay [2]; 0.0702 µg/mL in assay [3]; 0.068 µg/mL in the assay with human TNFα [4]; 0.00924 µg/mL in [8]; 0.13 µg/mL in assay [9]; 0.0438 µg/mL in the assay with human TNFα [10]. In assay [5], the “IC50 (ng/mL) of hIL-17A, SEAP reporter assay in HEK-Blue IL-17 cells” value is 20.9 ng/mL. Also, the “IC50 (ng/mL) of hIL-17F, SEAP reporter assay in HEK-Blue IL-17 cells” value in [6] stood at 1150 ng/mL. Further, the “IC50 (ng/mL) of hTNFα, SEAP reporter assay in HEK-Blue TNFα cells” value with human TNFα [7] was found to be 14.9 ng/mL.

B3: T1-T4-14 produced in pcDNA3.4 (Fc fusion)
chain: LRLLDHRAPVCSQPGLNCTVKNSDCLDDSWIHPRNLTPSSPKDLQIQLHFAHTQQGDLVPVAHIEWTLQTDASILYLEGAELSVLQLDTNERLCVRFEFLSKLRHHHRRWRFTFSHFVVDPGQEYEVTVHHLPKPIPDGDPNHQSKNFLVPDCEHPRMKVTTPCMSSALPWLNVSADGDNVHLVLNVSEEQHFGLSLYWNQVQGPPKPRWHKNLTGPQIITLNHTDLVPCLCIQVWPLEPDSVRTNICPFREDPRAHQNLWQAARLRLLTLQSWLLDAPCSLPAEAALCWRAPGGDPCQPLVPPLSWENVTVDKVLEFPLLKGHPNLCVQVNSSEKLQLQECLWADSLGPLKDDVLLLETRGPQDNRSLCALEPSGCTSLPSKASTRAARLGEYLLQDLQSGQCLQLWDDDLGALWACPMDKYIHKTGIEGRMDRNTGRGGEEKKKEKEKEEQEERETKTPECPSHTQPLGVFLFPPKPKDTLMISRTPEVTCVVVDVSQEDPEVQFNWYVDGVEVHNAKTKPREEQFNSTYRVVSVLTVLHQDWLNGKEYKCKVSNKGLPSSIEKTISKAKGQPREPQVYTLPPSQEEMTKNQVSLTCLVKGFYPSDIAVEWESNGQPENNYKTTPPVLDSDGSFFLYSRLTVDKSRWQEGNVFSCSVMHEALHNHYTQKSLSLSLGKGGGGSGGGGSGGGGSLELPAQVAFTPYAPEPGSTCRLREYYDQTAQMCCAKCPPGQHAKVFCTKTSDTVCDSCEDSTYTQLWNWVPECLSCSSRCSSDQVETQACTREQNRICTCRPGWYCALSKQEGCRLCAPLSKCRPGFGVARPGTETSDVVCKPCAPGTFSNTTSSTDICRPHQICSVVAIPGNASMDAVCTSTSPTRSMAPGAVHLPQPVSTRSQHTQPTPGPSTAPSTSILLPMGPSPPAEGSTGD
notes: Same named protein as T1-T4-14 but expressed from the pcDNA3.4 vector; also called IL-17RA/RC-Fc-TNFR2
On to B3, for which the EC50 amounted to 0.0607 µg/mL in [2], 0.0455 µg/mL in assay [3] and 0.0873 µg/mL in the assay with human TNFα [4].

B4: T1-T4-07 (Fc fusion)
chain: LRLLDHRAPVCSQPGLNCTVKNSDCLDDSWIHPRNLTPSSPKDLQIQLHFAHTQQGDLVPVAHIEWTLQTDASILYLEGAELSVLQLDTNERLCVRFEFLSKLRHHHRRWRFTFSHFVVDPGQEYEVTVHHLPKPIPDGDPNHQSKNFLVPDCEHPRMKVTTPCMSSALPWLNVSADGDNVHLVLNVSEEQHFGLSLYWNQVQGPPKPRWHKNLTGPQIITLNHTDLVPCLCIQVWPLEPDSVRTNICPFREDPRAHQNLWQAARLRLLTLQSWLLDAPCSLPAEAALCWRAPGGDPCQPLVPPLSWENVTVDKVLEFPLLKGHPNLCVQVNSSEKLQLQECLWADSLGPLKDDVLLLETRGPQDNRSLCALEPSGCTSLPSKASTRAARLGEYLLQDLQSGQCLQLWDDDLGALWACPMDKYIHKTGIEGRMDRNTGRGGEEKKKEKEKEEQEERETKTPECPSHTQPLGVFLFPPKPKDTLMISRTPEVTCVVVDVSQEDPEVQFNWYVDGVEVHNAKTKPREEQFNSTYRVVSVLTVLHQDWLNGKEYKCKVSNKGLPSSIEKTISKAKGQPREPQVYTLPPSQEEMTKNQVSLTCLVKGFYPSDIAVEWESNGQPENNYKTTPPVLDSDGSFFLYSRLTVDKSRWQEGNVFSCSVMHEALHNHYTQKSLSLSLGKGGGGSGGGGSGGGGSLELPAQVAFTPYAPEPGSTCRLREYYDQTAQMCCSKCSPGQHAKVFCTKTSDTVCDSCEDSTYTQLWNWVPECLSCGSRCSSDQVETQACTREQNRICTCRPGWYCALSKQEGCRLCAPLRKCRPGFGVARPGTETSDVVCKPCAPGTFSNTTSSTDICRPHQICNVVAIPGNASMDAVCTSTSPTRSMAPGAVHLPQPVSTRSQHTQPTPEPSTAPSTSFLLPMGPSPPAEGSTGD
notes: also called T1c-Fc-T4wt; IL-17RA/RC-Fc-TNFR2
In the case of B4, the “IC50 (ng/mL) of hIL-17A, SEAP reporter assay in HEK-Blue IL-17 cells” value in [5] is 24.4 ng/mL. For the same molecule, the “IC50 (ng/mL) of hIL-17F, SEAP reporter assay in HEK-Blue IL-17 cells” value in assay [6] turned out to be 2740 ng/mL. Besides, the “IC50 (ng/mL) of hTNFα, SEAP reporter assay in HEK-Blue TNFα cells” value in the assay with human TNFα [7] is 354 ng/mL. The results for the EC50 (in assay [8]; in assay [9]; in the assay with human TNFα [10]) were 0.00706 µg/mL, 0.183 µg/mL and 2.04 µg/mL, respectively.

B5: T1-T4-14+GT6 (glycan sialylated T1-T4-14) (Fc fusion)
chain: LRLLDHRAPVCSQPGLNCTVKNSDCLDDSWIHPRNLTPSSPKDLQIQLHFAHTQQGDLVPVAHIEWTLQTDASILYLEGAELSVLQLDTNERLCVRFEFLSKLRHHHRRWRFTFSHFVVDPGQEYEVTVHHLPKPIPDGDPNHQSKNFLVPDCEHPRMKVTTPCMSSALPWLNVSADGDNVHLVLNVSEEQHFGLSLYWNQVQGPPKPRWHKNLTGPQIITLNHTDLVPCLCIQVWPLEPDSVRTNICPFREDPRAHQNLWQAARLRLLTLQSWLLDAPCSLPAEAALCWRAPGGDPCQPLVPPLSWENVTVDKVLEFPLLKGHPNLCVQVNSSEKLQLQECLWADSLGPLKDDVLLLETRGPQDNRSLCALEPSGCTSLPSKASTRAARLGEYLLQDLQSGQCLQLWDDDLGALWACPMDKYIHKTGIEGRMDRNTGRGGEEKKKEKEKEEQEERETKTPECPSHTQPLGVFLFPPKPKDTLMISRTPEVTCVVVDVSQEDPEVQFNWYVDGVEVHNAKTKPREEQFNSTYRVVSVLTVLHQDWLNGKEYKCKVSNKGLPSSIEKTISKAKGQPREPQVYTLPPSQEEMTKNQVSLTCLVKGFYPSDIAVEWESNGQPENNYKTTPPVLDSDGSFFLYSRLTVDKSRWQEGNVFSCSVMHEALHNHYTQKSLSLSLGKGGGGSGGGGSGGGGSLELPAQVAFTPYAPEPGSTCRLREYYDQTAQMCCAKCPPGQHAKVFCTKTSDTVCDSCEDSTYTQLWNWVPECLSCSSRCSSDQVETQACTREQNRICTCRPGWYCALSKQEGCRLCAPLSKCRPGFGVARPGTETSDVVCKPCAPGTFSNTTSSTDICRPHQICSVVAIPGNASMDAVCTSTSPTRSMAPGAVHLPQPVSTRSQHTQPTPGPSTAPSTSILLPMGPSPPAEGSTGD
modifications: glycan sialylation (co-expressed with B4GALT6, fed with UMnG and ManNAc)
notes: Same polypeptide as T1-T4-14, with increased sialylation; also called T1-T4-14 produced in pcDNA3.4+GT6; glycan sialylated IL-17RA/RC-Fc-TNFR2
On to B5, for which the EC50 in [2] was 0.0543 µg/mL; in assay [3] it was 0.0621 µg/mL; with human TNFα [4], 0.0443 µg/mL.
